Source: publication PMC3094209

What was measured:
[1] = biological target: human angiotensin receptor type 2 expressed in P. pastoris (human) (UniProt P50052); assay: radioligand binding; membranes from small-scale cultures; radioactive-labelled specific ligand; specific binding in pmol/mg-membrane, mean ± S.D., n = 3
[2] = biological target: human angiotensin receptor type 2 expressed in Sf9 insect cells (human) (UniProt P50052); assay: as above

## Angiotensin (printed as "Angiotenin"), radioactive-labelled agonist (peptide)
[1]
  specific binding activity (pmol/mg-membrane): 3.69
[2]
  specific binding activity (pmol/mg-membrane): 1.66
